Test results published in publication PMC4050729.

Key:
[1] = molecular target: ribosome nascent chain complex bearing the 3A7L signal sequence, nascent chain of 85 residues, Cm-labeled (UniProt P0ADZ0); assay: FRET or BRET
[2] = molecular target: ribosome nascent chain complex bearing the 3A7L signal sequence, nascent chain of 85 residues, Cm-labeled (UniProt P0ADZ0); assay: other fluorescence titration

Row | Substance | fold weaker binding than wt SRP in the closed complex [1] [fold] | fold weaker binding than wt SRP in the early complex [1] [fold] | EC50 [2] [nM]
1 | SRP-FtsY complex formed with mutant SRP19/21E (early complex with GDP, closed complex with GppNHp) (from UniProt P0AGD7;P10121) | 6 | > 300 | 
2 | SecYEG translocon, cysteineless, solubilized in 0.02% DDM (from UniProt P0AGA2;P0AG96;P0AG99) (complex) |  |  | 39
